Measurements published in patent publication US20140065163A1.
Substitutions are numbered along the chain they refer to. Numbers in names are those of the source.

B1: MSB0010603 4K21 (4K21 hVH S56V-T62S hVL N28I-H34S-N53R-H93Y) (antibody, V domains shown)
VH: EVQLVESGGGLVQPGGSLRLSCAASGFAFSAYDMSWVRQAPGKRLELVAYISSGGSVFYYPDSVKGRFTISRDNAKNSLYLQMNSLRAEDTAVYYCTRHLGFDYWGQGTLVTVSS
VL: DIVMTQSPLSLPVTPGEPASISCRSSQSLVNSIGNTYLSWYLQKPGQSPQLLIYKVSRRFSGVPDRFSGSGSGTDFTLKISRVEAEDVGVYYCSQSTYVPPTFGQGTKVEIK
B2: MSB0010595 4K21 (4K21 hVH S56V-T62S hVL S27eY-N28I-H34S-N53R-H93Y) (antibody, V domains shown)
VH: B1 VH
VL: B1 VL with S32Y
B3: MSB0010602 4K21 (4K21 hVH S55K-T62S hVL S27eY-N28I-H34S-N53R-H93Y) (antibody, V domains shown)
VH: B1 VH with S56K, V57S
VL: B1 VL with S32Y
B4: MSB0010600 4K21 (4K21 hVH S55R-T62S hVL S27eY-N28I-H34S-N53R-H93Y) (antibody, V domains shown)
VH: B1 VH with S56R, V57S
VL: B1 VL with S32Y
B5: MSB0010599 4K21 (4K21 hVH S55R-T62S hVL N28I-H34S-N53R-H93Y) (antibody, V domains shown)
VH: B1 VH with S56R, V57S
VL: B1 VL
B6: MSB0010601 4K21 (4K21 hVH S55K-T62S hVL N28I-H34S-N53R-H93Y) (antibody, V domains shown)
VH: B1 VH with S56K, V57S
VL: B1 VL

Target: recombinant marmoset GM-CSF (Callithrix jacchus) (Callithrix jacchus)
Test: cell-based or functional assay

Chain of recombinant marmoset GM-CSF (Callithrix jacchus) (Callithrix jacchus) (chain, as listed by the source limits assumed, form in doubt): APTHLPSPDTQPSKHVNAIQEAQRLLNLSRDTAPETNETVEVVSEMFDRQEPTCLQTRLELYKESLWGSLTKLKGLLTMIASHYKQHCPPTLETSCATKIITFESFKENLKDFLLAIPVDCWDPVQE

Row | Binder | IC50, inhibition of marmoset GM-CSF induced TF-1 proliferation (1.9 nM) [nM]
1 | B1 | 0.7
2 | B2 | 1.5
3 | B3 | 1.3
4 | B4 | 2
5 | B5 | 0.9
6 | B6 | 0.7
